Source: publication PMC7104408 (Proceedings of the National Academy of Sciences of the …, 2019)
Where two headings read alike, the source gives them in different places.

T1: LUXMYB (UniProt Q9SNB4 139-200)
T1 sequence: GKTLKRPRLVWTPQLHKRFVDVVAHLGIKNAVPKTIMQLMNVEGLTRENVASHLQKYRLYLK

T2: ELF4 (UniProt O04211 1-111)
T2 sequence: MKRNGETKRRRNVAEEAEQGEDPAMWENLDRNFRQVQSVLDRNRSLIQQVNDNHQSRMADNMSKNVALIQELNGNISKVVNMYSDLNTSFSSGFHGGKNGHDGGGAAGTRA

T3: LUXFL;ELF3;ELF4 (Arabidopsis thaliana?;Arabidopsis …, UniProt Q9SNB4;O82804;O04211 1-323;1-695;1-111, ||)
T3 sequence 1: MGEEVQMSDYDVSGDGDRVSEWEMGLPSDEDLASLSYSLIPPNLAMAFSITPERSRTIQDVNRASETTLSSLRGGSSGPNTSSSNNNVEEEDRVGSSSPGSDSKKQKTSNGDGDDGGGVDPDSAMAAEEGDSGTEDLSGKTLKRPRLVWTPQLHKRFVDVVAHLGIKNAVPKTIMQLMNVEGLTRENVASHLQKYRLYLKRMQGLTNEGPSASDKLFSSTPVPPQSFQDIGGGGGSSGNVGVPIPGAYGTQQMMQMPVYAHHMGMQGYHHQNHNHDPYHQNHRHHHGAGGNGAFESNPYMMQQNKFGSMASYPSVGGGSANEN
T3 sequence 2: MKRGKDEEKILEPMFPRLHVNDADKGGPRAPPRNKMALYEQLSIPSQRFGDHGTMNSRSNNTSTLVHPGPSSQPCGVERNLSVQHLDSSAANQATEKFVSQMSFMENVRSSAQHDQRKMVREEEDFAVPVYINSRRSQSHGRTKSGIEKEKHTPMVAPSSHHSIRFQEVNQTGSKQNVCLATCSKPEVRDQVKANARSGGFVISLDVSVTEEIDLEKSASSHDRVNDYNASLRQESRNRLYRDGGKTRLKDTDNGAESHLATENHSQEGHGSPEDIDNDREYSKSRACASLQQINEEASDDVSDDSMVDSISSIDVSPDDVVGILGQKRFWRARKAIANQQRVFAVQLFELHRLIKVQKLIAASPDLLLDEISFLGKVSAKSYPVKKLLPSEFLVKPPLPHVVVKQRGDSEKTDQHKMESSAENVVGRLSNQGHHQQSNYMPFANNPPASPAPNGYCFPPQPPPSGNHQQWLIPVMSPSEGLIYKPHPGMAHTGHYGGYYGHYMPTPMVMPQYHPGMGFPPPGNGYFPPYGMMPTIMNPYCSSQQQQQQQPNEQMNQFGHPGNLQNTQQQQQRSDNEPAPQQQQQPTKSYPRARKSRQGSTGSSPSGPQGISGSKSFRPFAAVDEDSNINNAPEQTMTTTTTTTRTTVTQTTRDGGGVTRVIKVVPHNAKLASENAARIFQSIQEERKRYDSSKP
T3 sequence 3: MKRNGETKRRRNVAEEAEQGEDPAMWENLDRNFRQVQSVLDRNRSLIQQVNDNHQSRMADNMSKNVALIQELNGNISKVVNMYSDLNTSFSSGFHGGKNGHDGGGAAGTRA

T4: LUXFL R146A (UniProt Q9SNB4 1-323, R146A)
T4 sequence: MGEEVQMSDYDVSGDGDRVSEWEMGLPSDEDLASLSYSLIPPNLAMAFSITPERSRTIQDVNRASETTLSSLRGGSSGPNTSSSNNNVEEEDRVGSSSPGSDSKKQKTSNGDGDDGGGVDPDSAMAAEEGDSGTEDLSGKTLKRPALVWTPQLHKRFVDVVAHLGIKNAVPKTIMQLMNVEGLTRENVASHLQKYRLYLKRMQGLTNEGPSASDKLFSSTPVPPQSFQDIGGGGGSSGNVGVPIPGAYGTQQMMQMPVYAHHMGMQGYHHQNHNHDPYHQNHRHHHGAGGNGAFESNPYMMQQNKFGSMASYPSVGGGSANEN

T5: LUXMYB R146A (UniProt Q9SNB4 139-200, R146A)
T5 sequence: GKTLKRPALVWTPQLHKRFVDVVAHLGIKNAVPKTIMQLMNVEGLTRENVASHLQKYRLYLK

T6: LUXFL (UniProt Q9SNB4 1-323)
T6 sequence: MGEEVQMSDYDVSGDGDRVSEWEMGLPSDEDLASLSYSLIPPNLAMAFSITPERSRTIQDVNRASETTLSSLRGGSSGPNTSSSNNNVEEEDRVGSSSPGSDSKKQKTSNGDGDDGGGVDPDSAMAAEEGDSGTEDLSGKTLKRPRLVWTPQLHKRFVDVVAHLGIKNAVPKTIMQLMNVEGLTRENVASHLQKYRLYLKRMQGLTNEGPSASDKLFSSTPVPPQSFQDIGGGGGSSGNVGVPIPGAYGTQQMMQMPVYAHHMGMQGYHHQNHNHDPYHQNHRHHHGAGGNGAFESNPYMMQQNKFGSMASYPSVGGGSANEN

T7: ELF3 (UniProt O82804 1-695)
T7 sequence: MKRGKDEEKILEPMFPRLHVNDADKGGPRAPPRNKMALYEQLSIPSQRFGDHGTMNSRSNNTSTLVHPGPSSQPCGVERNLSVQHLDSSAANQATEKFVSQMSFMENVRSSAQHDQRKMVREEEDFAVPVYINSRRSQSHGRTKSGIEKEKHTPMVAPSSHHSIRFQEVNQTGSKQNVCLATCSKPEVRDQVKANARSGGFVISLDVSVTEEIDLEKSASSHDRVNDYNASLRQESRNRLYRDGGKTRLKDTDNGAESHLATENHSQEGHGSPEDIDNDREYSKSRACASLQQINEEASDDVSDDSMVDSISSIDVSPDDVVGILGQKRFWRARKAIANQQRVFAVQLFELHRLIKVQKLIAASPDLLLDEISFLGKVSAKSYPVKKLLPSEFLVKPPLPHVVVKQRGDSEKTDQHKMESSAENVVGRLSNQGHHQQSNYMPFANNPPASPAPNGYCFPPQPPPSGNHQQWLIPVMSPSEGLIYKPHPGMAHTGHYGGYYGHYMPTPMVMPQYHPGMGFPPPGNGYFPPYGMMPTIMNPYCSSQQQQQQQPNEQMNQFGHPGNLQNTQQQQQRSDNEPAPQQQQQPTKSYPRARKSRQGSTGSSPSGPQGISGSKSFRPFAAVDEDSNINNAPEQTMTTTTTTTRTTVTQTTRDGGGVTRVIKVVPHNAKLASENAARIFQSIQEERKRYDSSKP

T8: EARLY FLOWERING 3, full-length (Arabidopsis, UniProt O82804 1-695)
T8 sequence: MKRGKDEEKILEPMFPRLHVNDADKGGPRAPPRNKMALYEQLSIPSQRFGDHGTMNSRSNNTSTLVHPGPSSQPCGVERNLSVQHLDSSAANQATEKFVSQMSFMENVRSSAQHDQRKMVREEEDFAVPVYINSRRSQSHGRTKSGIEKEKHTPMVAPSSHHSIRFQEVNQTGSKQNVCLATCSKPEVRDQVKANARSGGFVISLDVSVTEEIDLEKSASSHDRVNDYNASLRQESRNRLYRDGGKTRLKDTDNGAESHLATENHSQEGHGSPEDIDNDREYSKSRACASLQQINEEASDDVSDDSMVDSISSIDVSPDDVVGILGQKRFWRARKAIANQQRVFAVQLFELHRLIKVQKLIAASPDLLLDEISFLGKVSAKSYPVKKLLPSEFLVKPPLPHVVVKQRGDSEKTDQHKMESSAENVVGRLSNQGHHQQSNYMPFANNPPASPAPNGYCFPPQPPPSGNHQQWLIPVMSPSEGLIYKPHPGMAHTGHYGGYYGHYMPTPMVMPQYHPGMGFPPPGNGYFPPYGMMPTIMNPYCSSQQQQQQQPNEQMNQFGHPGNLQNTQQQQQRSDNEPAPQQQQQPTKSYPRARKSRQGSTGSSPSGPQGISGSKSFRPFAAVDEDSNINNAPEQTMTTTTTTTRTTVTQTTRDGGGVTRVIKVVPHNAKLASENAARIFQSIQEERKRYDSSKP


Tests used:
[1] = target: T1, LUXMYB; experiment: crystal structure
[2] = target: T2, ELF4; experiment: EMSA
[3] = target: T3, LUXFL;ELF3;ELF4; experiment: EMSA
[4] = target: T4, LUXFL R146A; experiment: EMSA
[5] = target: T1, LUXMYB; experiment: EMSA
[6] = target: T5, LUXMYB R146A; experiment: EMSA
[7] = target: T6, LUXFL; experiment: EMSA
[8] = target: T7, ELF3; experiment: EMSA
[9] = target: T1, LUXMYB; experiment: crystal structure; remark: listed apart in the source
[10] = target: T8, EARLY FLOWERING 3, full-length; experiment: native gel or EMSA

Binder	Kd [4]	Kd [5]	Kd [6]	Kd [7]	also measured
crystal 10-mer AGATACGC (dsDNA) DNA 1: TAGATACGCA DNA 2: ATGCGTATCT					binding result [1]: binds
Oligo 1 (PRR9 36 bp) (dsDNA) DNA 1: ATGATGTCTTCTCAAGATTCGATAAAAATGGTGTTG DNA 2: CAACACCATTTTTATCGAATCTTGAGAAGACATCAT	105 ± 11.8 nM	37 ± 2.9 nM	50 ± 2.4 nM	93 ± 5.8 nM	binding result [2]: no binding; binding result [3]: binds; binding result [8]: no binding
Oligo 3 (AAGATCTT) (dsDNA) DNA 1: ATGATGTCTTCTCAAGATCTTATAAAAATGGTGTTG DNA 2: CAACACCATTTTTATAAGATCTTGAGAAGACATCAT	204 ± 6.7 nM	14 ± 1.8 nM	63 ± 3.1 nM	93 ± 3.5 nM	
Oligo 2 (AGATACGC) (dsDNA) DNA 1: ATGATGTCTTCTCAAGATACGCTAAAAATGGTGTTG DNA 2: CAACACCATTTTTAGCGTATCTTGAGAAGACATCAT	336 ± 4.8 nM	6.5 ± 1.4 nM	50 ± 1.8 nM	98 ± 2.9 nM	
Oligo 4 (GGATCCGA) (dsDNA) DNA 1: ATGATGTCTTCTCGGATCCGATAAAAATGGTGTTG DNA 2: CAACACCATTTTTATCGGATCCGAGAAGACATCAT	164 ± 4.2 nM	17 ± 2.1 nM	120 ± 1 nM	118 ± 10.6 nM	
crystal 10-mer ATATTCGA (dsDNA) DNA 1: TATATTCGAA DNA 2: ATTCGAATAT					binding result [9]: binds
Oligo 5 (ATATTCGA) (dsDNA) DNA 1: ATGATGTCTTCTCGAATATTCGATAAAAATGGTGTTG DNA 2: CAACACCATTTTTATCGAATATTCGAGAAGACATCAT		43 ± 4.2 nM	137 ± 13 nM	178 ± 3.5 nM	
EARLY FLOWERING 4 (natural protein) MKRNGETKRRRNVAEEAEQGEDPAMWENLDRNFRQVQSVLDRNRSLIQQVNDNHQSRMADNMSKNVALIQELNGNISKVVNMYSDLNTSFSSGFHGGKNGHDGGGAAGTRA					binding result [10]: binds
